Source: patent US20130344070A1 (SORRENTO THERAPEUTICS, published 2013)
Substitutions are numbered along the chain they refer to.

B1: 54A9 (antibody, V domains shown)
VH: VQLVESGAEVKKPGASVKVSCKASGYTFSSHYMHWVRQAPGQGLEWMGIINPSGGSTIYAQKFQGRVTINADESTSTAYMELSSLGSDDTAVYYCARAAGGAVAGHGARFDYWGQGTLVTVSS
VL: LPVLTQPASVSGSPGQSITISCTGTSSDVGGYNYVSWYQQHPGKAPKLMIYDVSNRPSGVSNRFSGSKSGNTASLTISGLQAEDEADYYCSSYRRSSTLVFGGGTKLTVL
notes: tested as IgG
B2: D1-1/LO (antibody, V domains shown)
VH: QVQLVQSGAEVKKPGASVKVSCKASGYTFTGYYMHWVRQAPGQGLEWMGWINPNSGVTKYAQKFQGRVTMTRDTSTSTVYMELSSLRSEDTAVYYCATGGFGYWGEGTLVTVSS
VL: LPVLTQPPSVSKGLRQTATLTCTGNSNNVGNQGAAWLQQHQGQPPKLLSYRNHNRPSGVSERFSPSRSGDTSSLTITGLQPEDEADYYCLAWDSSLRAFVFGTGTKLTVL
notes: The suffix '/LO' is not explained
B3: 1B11 (antibody, V domains shown)
VH: QVQLVESGGGVVQPGRSLRLSCAASGFTFSSYAMHWVRQAPGKGLEWVAVISYDGSNKYYADSVKGRFTISRDNSKNTLYLQMNSLKAEDTAVYYCATAAAGPFDYWGQGTTVTVSS
VL: B2 VL
notes: tested as IgG
B4: 1G11 (antibody, human IgG1, V domains shown)
VH: EVQLVESGAEVKKPGASVKVSCKASGYIFTGYYIHWVRQAPGQGLEWMGWINPNNGVTKYAEKFQGRVTMTRDTSITTAYMDLSRLRSDDTAIYYCATGGFEYWGQGTLVTVSS
VL: B2 VL
B5: 1B2 (antibody, human IgG1, V domains shown)
VH: EVQLVESGAEVKKPGASVKVSCKASGYTFTGYYMNWVRQAPGQGLEWMGWINPNSGGTKYAQKFQGRVTMTSDTSINTAYMELSRLRYDDTAVYYCATGGFQHWGQGTLVTVSS
VL: B2 VL
B6: 1H5 (antibody, V domains shown)
VH: EVQLVQSGAEVKKPGASVKVSCKASGYTFTSYYMHWVRQAPGQGLEWMGIINPSGGSTSYAHKFQGRVTMTRDTSTSTVYMELSSLRSEDTAVYYCARGGHVLRFLEWLGLEGPFDYWGQGTLVTVSS
VL: B2 VL
notes: tested as IgG
B7: D1-7/LO (antibody, V domains shown)
VH: QVQLVQSGAEVKKPGASVKVSCKASGYTFTGYYMHWVRQAPGQGLEWMGWINPNSGVTKYAQKFQGRVTMTRDTSTSTVYMELSSLRSEDTAVYYCATGSGGGTMDVWGEGTLVTVSS
VL: B2 VL
notes: tested as IgG. '/LO' not explained
B8: D1-6/LO (antibody, V domains shown)
VH: B2 VH with Y33H, W50I, N54S, V57S
VL: B2 VL
notes: as for B7
B9: D1-2/LO (antibody, V domains shown)
VH: B2 VH with Y33H, W50I, N54S, S55G, V57S, K59S
VL: B2 VL
notes: as for B7
B10: 1A2 (antibody, V domains shown)
VH: B7 VH with Q1E, G31S, W50I, N54S, S55G, V57S, K59S, E110Q, L113T
VL: B2 VL
notes: tested as IgG
B11: D1-1/45H8L1 (antibody, V domains shown)
VH: B2 VH
VL: B2 VL with L1Q, P2A
notes: also called D1H1/45H8L1; D1-1B
B12: D1-4/LO (antibody, V domains shown)
VH: B2 VH with W50I, N54S, S55G, V57S, K59S
VL: B2 VL
notes: as for B7
B13: 43D12 (antibody, V domains shown)
VH: EVQLVESGGGLVQPGGSLRLSCVASGFTFSDYWMSWVRQAPGKGLEWVANIKKDGSVNYYVDSVKGRFTISRDNAKNSLYLQMNSLRAEDTAVYYCTRFDYWGQGTLVTVSS
VL: QAGLTQPPSVSKGLRQTATLTCTGNSNNVGNQGAAWLQQHQGHPPKLLFYRNNNRASGISERLSASRSGNTASLTITGLQPEDEADYYCLTWDSSLSVVVFGGGTKLTVL
notes: tested as IgG; 27/28 '43D12'; the text calls the same pair '43G12'; also called 43G12
B14: 42G7 (antibody, V domains shown)
VH: QVQLVQSGAEVKKPGASVKVSCKASGYTFSSYYMHWVRQAPGQGLEWMGIINPSGGNTSYAQKFQGRVTMTRDTSTSTVYMELSSLRSEDTAVYYCARGGYQLPHGRARAFDMWGQGTMVTVSS
VL: AIRMTQSPLSLPVTLGQPASISCTSSQSLVYRDGTTYLNWFQQRPGQSPRRLIYKVSNRDSGVPDRFTGSGSGTTFTLTISRVEAEDVGIYYCMQGTHWPLTFGQGTKVEI
notes: tested as IgG

molecular target: T1, human CCR2 (CC-Chemokine Receptor 2) (human, UniProt P41597 1-374); test: flow cytometry on CHO-huCCR2 cells, PE anti-human IgG
T1 construct: whole, on cells; also called huCCR2; CHO-huCCR2
Experimental: The data in FIG. 1 illustrates in vitro data for cellular binding EC₅₀ measurements. […] In this example, CHO-CCR2 cells were lifted from culture flasks using non-enzymatic Cell Dissociation Buffer—PBS based (Life Technologies #13151-014). Cells were resuspended in FACS Buffer (2% Fetal Bovine Serum in PBS) at 1×10⁶ cells/ml and 100 μl (1×10⁵ cells) were aliquoted into the wells of a 96-well plate. Plated cells were spun down and the supernatant discarded. Cells were resuspended in 50 μl FACS Buffer containing the indicated concentrations of CCR2 D1 IgG in triplicate (FIG. 1). Plates were incubated for 1 hr at 4° C., then washed 1× with FACS Buffer. Cells were resuspended in 50 μl goat anti-human IgG (γ-chain specific)-PE conjugated secondary antibody (Southern Biotech #2040-09) diluted 1:500 in FACS Buffer. Cells were further incubated for 30 min at 4° C. and then washed 1× with FACS Buffer. The cells were resuspended in a final volume of 25 μl FACS Buffer and analyzed using the Intellicyt Flow Cytometer. Median fluorescence in the FL-2H channel was determined using FlowJo software and EC₅₀ value was determined by plotting the data in GraphPad Prism and analyzing using a variable slope non-linear regression.

T1 sequence (P41597 whole entry): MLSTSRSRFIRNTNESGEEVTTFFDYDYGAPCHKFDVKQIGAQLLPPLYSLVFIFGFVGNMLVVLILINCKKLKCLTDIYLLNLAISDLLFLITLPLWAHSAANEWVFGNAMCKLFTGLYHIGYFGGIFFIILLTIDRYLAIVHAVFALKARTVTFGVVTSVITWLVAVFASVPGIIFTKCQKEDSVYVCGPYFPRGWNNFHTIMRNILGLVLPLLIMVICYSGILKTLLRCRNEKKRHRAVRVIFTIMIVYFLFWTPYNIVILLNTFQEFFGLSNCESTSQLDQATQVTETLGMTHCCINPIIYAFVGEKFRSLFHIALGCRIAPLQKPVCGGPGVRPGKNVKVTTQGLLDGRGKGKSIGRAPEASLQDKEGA

EC50	Binder
0.53 nM	B1
0.13 nM	B2
2.3 nM	B3
0.34 nM	B4
0.36 nM	B5
1.3 nM	B6
0.08 nM	B7
3.5 nM	B8
16 nM	B9
2.9 nM	B10
0.15 nM	B11
1.6 nM	B12
1.8 nM	B13
15 nM	B14

molecular target: T1, human CCR2 (CC-Chemokine Receptor 2); test: cell-based or functional assay

IC50 on MCP-1 (3 nM) induced THP-1 cell migration	IC50 on MCP-5 (6 ng/ml) induced THP-1 cell migration	IC50 on MCP-5 (3 nM) induced THP-1 cell migration	IC50 on MCP-2 (30 ng/ml) induced THP-1 cell migration	IC50 on MCP-3 (6 ng/ml) induced THP-1 cell migration	IC50 on MCP-4 (200 ng/ml) induced THP-1 cell migration	Binder
0.079 nM	0.261 nM	–	–	–	–	B4
0.087 nM	–	0.197 nM	–	–	–	B5
0.109 nM	0.349 nM	–	1.9 nM	2.6 nM	1.4 nM	B6

molecular target: T1, human CCR2 (CC-Chemokine Receptor 2); test: cell-based or functional assay; remark: another data set of the same source

IC50 in chemotaxis assay using human THP-1 cells, ligand MCP-1 (3 nM)	IC50 in chemotaxis assay using human THP-1 cells, ligand MCP-3 (1.1 nM)	IC50 in chemotaxis assay using human THP-1 cells, ligand MCP-2 (6.7 nM)	IC50 in chemotaxis assay using human THP-1 cells, ligand MCP-4 (35 nM)	IC50 in chemotaxis assay using human THP-1 cells, ligand MCP-5 (0.65 nM)	Binder
0.13 nM	0.1 nM	–	–	–	B2
0.08 nM	0.07 nM	0.16 nM	0.06 nM	0.26 nM	B4
0.09 nM	0.04 nM	0.06 nM	0.05 nM	0.2 nM	B5
0.28 nM	–	–	0.08 nM	–	B11

molecular target: T2, murine CCR2 (murine, UniProt P51683 1-373); test: flow cytometry on WEHI 274.1 cells (murine CCR2), PE anti-human IgG
T2 construct: whole, on cells; also called mouse CCR2; murine CCR2-expressing cells (WEHI 274.1)
Experimental: In this example, WEHI 274.1 cells were resuspended in FACS Buffer (2% Fetal Bovine Serum in PBS) at 1×10⁶ cells and […] of cell suspension was aliquoted into the wells of a 96-well plate. Plated cells were spun down and the supernatant discarded. Cells were resuspended in 30 μl FACS Buffer containing serially diluted anti-CCR2 IgGs in triplicate. Plates were incubated for 1 hr at 4° C., then washed 2× with FACS Buffer. Cells were resuspended in 50 μl goat anti-human IgG (γ-chain specific)-PE conjugated secondary antibody (Southern Biotech #2040-09) diluted 1:500 in FACS Buffer, incubated for 30 min at 4° C. and then washed 1× with FACS Buffer. The cells were resuspended in a final volume of 30 μl FACS Buffer and analyzed using the Intellicyt Flow Cytometer. Median fluorescence in the FL-2H channel was determined using FlowJo software and EC₅₀ values were determined by plotting the data in GraphPad Prism and analyzed using a variable slope non-linear regression.

T2 sequence (P51683 whole entry): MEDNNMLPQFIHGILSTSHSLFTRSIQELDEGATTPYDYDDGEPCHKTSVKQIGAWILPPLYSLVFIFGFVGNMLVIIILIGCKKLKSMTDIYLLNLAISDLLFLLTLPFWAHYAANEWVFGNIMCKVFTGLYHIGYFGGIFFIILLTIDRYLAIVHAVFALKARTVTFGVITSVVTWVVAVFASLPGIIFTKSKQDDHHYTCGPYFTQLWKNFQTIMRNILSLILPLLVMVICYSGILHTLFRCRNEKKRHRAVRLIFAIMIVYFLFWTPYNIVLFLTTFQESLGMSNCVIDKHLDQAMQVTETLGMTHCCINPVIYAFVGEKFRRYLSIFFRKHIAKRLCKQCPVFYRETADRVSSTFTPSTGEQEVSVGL

EC50	Binder
4.8 nM	B2
81 nM	B9
2 nM	B11

molecular target: T1, human CCR2 (CC-Chemokine Receptor 2); test: cell-based or functional assay; remark: another data set of the same source

IC50 in calcium flux assay using human THP-1 cells, ligand MCP-1 (2.5 nM)	IC50 in calcium flux assay using human THP-1 cells, ligand MCP-3 (22 nM)	IC50 in calcium flux assay using human THP-1 cells, ligand MCP-5 (0.43 nM)	Binder
0.75 nM	0.25 nM	0.56 nM	B4
0.92 nM	0.29 nM	0.89 nM	B5
0.37 nM	0.19 nM	0.27 nM	B11

molecular target: T2, murine CCR2; test: cell-based or functional assay

IC50 in chemotaxis assay using mouse WEHI cells, ligand mouse MCP-1 (0.7 nM)	Binder
0.035 nM	B2
0.012 nM	B11
